Reference: US20140322218A1 (Amgen, published 2014)
Where a chain is given by its changes, count along the chain named. Numbers in names are those of the source.

Columns and labels:
[1] = molecular target: T1, Human Cadherin-19 (human, UniProt Q9H159 44-772); experiment: FACS, endogenous CDH19 on CHL-1/Colo699
T1 construct: Residues 1-43 are named as the native leader in the construct designations and are left out; also called human CDH19; huCDH19

[2] = molecular target: T2, Cyno Cadherin-19 (cynomolgus monkey (Macaca fascicularis), UniProt Q9H159 44-772 (human entry)); experiment: FACS, recombinant cyno CDH19
T2 construct: also called cyno CDH19; cynomologous CDH-19
T2 chain: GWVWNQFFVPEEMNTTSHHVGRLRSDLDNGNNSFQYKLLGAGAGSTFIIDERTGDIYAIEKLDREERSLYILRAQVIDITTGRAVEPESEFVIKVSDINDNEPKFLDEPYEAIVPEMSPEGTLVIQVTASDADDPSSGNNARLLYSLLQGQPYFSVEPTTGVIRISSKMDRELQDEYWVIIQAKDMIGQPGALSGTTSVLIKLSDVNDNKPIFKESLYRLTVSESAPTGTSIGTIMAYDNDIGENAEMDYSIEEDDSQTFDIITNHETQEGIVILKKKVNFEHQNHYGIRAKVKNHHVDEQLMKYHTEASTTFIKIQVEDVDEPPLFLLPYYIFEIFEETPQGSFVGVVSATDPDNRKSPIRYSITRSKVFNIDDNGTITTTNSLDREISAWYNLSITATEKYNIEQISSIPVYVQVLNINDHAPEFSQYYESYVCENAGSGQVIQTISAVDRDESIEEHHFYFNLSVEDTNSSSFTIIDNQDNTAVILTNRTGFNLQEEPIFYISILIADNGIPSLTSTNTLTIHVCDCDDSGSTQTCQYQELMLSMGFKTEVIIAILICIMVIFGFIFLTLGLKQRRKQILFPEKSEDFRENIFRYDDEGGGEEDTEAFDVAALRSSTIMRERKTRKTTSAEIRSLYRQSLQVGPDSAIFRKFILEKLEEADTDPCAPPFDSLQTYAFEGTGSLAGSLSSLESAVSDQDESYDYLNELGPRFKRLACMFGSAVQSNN

[3] = molecular target: T3, huCDH19(44-772), Flag-tagged, on 293T cells (human, UniProt Q9H159 44-772); experiment: FACS, transfected 293T
T3 construct: Expressed with native leader (1-43) followed by a Flag tag; leader left out; also called Hu EC1-5

[4] = molecular target: T4, huCDH19(44-141)::muCDH19(140-770), Flag-tagged, on 293T cells (human/mouse chimera); experiment: FACS, transfected 293T
T4 construct: also called Hu EC1

[5] = molecular target: T5, huCDH19(44-249)::muCDH19(248-770), Flag-tagged, on 293T cells (human/mouse chimera); experiment: FACS, transfected 293T
T5 construct: also called Hu EC1-2; C137896

[6] = molecular target: T6, muCDH19(44-770), Flag-tagged, on 293T cells (mouse); experiment: FACS, transfected 293T
T6 construct: also called Mu EC1-5
T6 chain: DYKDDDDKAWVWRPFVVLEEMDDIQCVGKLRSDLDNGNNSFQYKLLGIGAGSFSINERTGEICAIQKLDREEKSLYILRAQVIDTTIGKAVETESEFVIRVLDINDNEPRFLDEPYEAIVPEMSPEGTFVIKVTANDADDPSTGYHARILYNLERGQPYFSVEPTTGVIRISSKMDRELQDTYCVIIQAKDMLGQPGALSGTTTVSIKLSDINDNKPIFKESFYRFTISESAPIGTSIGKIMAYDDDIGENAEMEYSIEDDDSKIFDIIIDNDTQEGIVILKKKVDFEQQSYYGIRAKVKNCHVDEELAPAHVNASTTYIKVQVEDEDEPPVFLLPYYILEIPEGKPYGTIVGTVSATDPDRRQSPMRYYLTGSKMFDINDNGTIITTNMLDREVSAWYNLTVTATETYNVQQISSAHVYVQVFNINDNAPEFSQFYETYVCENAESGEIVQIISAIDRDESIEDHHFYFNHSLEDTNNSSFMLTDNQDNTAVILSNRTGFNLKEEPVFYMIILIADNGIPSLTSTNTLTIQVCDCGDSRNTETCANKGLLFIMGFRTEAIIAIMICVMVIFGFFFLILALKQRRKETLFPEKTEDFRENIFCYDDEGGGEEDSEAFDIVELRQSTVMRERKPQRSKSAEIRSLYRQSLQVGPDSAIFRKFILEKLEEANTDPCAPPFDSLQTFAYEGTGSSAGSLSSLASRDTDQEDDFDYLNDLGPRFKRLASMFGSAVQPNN

[7] = molecular target: T7, ckCDH19(1-43)::FLAG::ckCDH19(44-141)::huCDH19(142-249)::ckCDH19(250-776), on 293T cells (human/chicken chimera); experiment: FACS, transfected 293T;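 note: antibody binding to chimera-expressing cells with 2 mM CaCl2 present, cell-bound Alexa647-labelled antibody read by flow cytometry, mock-transfected cells serving as control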
T7 construct: Entry holds leader (1-43), Flag tag and CDH19 part; leader left out; also called Hu EC2 (chicken backbone)
T7 chain: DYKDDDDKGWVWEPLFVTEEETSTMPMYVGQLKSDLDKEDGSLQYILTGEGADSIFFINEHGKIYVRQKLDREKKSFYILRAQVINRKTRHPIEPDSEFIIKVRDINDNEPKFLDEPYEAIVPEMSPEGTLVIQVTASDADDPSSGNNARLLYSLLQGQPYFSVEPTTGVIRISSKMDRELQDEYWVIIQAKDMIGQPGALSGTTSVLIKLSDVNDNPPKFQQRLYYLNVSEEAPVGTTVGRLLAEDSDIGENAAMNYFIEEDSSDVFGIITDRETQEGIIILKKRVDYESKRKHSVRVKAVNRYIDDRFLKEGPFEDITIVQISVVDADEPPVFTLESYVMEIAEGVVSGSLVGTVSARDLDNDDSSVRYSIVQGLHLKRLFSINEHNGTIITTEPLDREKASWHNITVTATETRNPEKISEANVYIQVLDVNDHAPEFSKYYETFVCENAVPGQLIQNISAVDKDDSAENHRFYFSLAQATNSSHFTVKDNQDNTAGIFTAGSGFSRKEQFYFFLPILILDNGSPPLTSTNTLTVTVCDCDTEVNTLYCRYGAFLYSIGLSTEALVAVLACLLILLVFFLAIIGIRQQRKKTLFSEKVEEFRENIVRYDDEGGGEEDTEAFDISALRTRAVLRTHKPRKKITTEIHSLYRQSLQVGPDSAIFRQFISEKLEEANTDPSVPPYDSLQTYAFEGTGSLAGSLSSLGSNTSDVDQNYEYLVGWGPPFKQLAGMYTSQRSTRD

[8] = molecular target: T8, (1-43)::FLAG::ckCDH19(44-468)::huCDH19(464-772), on 293T cells (human/chicken chimera); experiment: FACS, transfected 293T;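 note: antibody binding to chimera-expressing cells with 2 mM CaCl2 present, cell-bound Alexa647-labelled antibody read by flow cytometry, mock-transfected cells serving as control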
T8 construct: Entry holds leader (1-43), Flag tag and CDH19 part; leader left out; also called Hu EC5 (chicken backbone)
T8 chain: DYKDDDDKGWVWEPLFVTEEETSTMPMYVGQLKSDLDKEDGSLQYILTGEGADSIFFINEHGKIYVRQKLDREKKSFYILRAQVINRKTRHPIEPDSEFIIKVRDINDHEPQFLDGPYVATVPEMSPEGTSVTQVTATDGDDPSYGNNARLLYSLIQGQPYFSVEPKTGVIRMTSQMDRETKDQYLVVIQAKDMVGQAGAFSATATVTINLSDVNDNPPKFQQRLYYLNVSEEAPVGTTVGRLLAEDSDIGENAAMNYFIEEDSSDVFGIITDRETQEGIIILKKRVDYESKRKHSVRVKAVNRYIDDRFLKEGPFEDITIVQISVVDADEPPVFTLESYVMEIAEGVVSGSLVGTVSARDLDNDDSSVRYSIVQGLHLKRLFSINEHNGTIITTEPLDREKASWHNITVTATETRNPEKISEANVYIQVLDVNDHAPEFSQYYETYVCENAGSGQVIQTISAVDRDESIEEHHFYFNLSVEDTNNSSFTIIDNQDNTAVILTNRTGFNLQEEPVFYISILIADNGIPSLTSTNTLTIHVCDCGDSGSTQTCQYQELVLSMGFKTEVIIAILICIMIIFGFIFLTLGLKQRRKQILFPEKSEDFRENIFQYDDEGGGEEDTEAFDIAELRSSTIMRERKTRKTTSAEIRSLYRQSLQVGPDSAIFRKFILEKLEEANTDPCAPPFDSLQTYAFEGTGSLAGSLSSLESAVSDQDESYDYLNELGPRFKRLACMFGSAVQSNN

[9] = molecular target: T9, huCDH19(1-43)::FLAG::hu(44-141)::ckCDH19(142-776), on 293T cells (human/chicken chimera); experiment: FACS, transfected 293T;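 note: antibody binding to chimera-expressing cells with 2 mM CaCl2 present, cell-bound Alexa647-labelled antibody read by flow cytometry, mock-transfected cells serving as control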
T9 construct: Entry holds leader (1-43), Flag tag and CDH19 part; leader left out; also called Hu EC1 (chicken backbone)

[10] = molecular target: T10, ckCDH19(1-43)::FLAG::ckCDH19(44-776), on 293T cells (chicken); experiment: FACS, transfected 293T;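 note: antibody binding to chimera-expressing cells with 2 mM CaCl2 present, cell-bound Alexa647-labelled antibody read by flow cytometry, mock-transfected cells serving as control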
T10 construct: Entry holds leader (1-43), Flag tag and CDH19 part; leader left out; also called Ck EC1-5
T10 chain: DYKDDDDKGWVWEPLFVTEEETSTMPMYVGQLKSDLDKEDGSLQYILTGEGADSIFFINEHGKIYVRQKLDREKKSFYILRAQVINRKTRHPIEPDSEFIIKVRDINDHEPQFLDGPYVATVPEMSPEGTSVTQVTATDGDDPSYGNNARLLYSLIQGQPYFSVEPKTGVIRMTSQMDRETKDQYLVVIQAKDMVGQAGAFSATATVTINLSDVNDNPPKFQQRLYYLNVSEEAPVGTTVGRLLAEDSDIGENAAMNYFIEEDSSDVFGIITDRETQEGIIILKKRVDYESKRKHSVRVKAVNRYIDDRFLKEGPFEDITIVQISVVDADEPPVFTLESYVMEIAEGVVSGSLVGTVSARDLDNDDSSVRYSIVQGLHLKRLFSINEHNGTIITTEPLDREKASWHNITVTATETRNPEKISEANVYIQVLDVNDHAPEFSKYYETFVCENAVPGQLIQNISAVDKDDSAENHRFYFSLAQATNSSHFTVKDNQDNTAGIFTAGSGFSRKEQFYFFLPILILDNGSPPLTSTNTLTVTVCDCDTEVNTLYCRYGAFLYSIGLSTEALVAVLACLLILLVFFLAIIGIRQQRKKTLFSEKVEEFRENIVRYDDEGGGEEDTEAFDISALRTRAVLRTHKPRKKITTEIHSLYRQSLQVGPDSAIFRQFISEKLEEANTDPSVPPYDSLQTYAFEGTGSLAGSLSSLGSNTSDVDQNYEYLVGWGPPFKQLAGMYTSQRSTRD

[11] = molecular target: T11, muCDH19(44-139)::huCDH19(142-364)::muCDH19(363-770), Flag-tagged, on 293T cells (human/mouse chimera); experiment: FACS, transfected 293T
T11 construct: also called Hu EC2-3; C137847

[12] = molecular target: T12, muCDH19(44-247)::huCDH19(250-364)::muCDH19(363-770), Flag-tagged, on 293T cells (human/mouse chimera); experiment: FACS, transfected 293T
T12 construct: also called Hu EC3; C137911

B1: hu anti-<huCDH19> 22D1.1 VH::huIgG1z / 22D1.1 VL::huLLC-C2 (Ab ID 13879) (antibody, V domains shown)
VH: QVQLVQSGAEVKKPGASVRVSCKVSGYTFTSYFIHWVRQAPGQGLEWMGIINPISVSTSYAQKFQGRVTMTRDTSTSTVFMELSSLRSEDTAVYYCARGGIQLWLHLDYWGQGTLVTVSS
VL: QSALTQPPSATGTPGQRVTISCSGSSSNIGSNFVNWYKQLPGTAPKVLIYTNNQRPSGVPDRFSGSKSGTSASLAISGLQSEDESDYYCATWDDSMNGWVFGGGTKLTVLG
B1: binds [1]; binds [2].

B2: hu anti-<huCDH19> 25F8.1 VH::huIgG1z / 25F8.1 VL::huLLC-C2 (Ab ID 13880) (antibody, V domains shown)
VH: B1 VH with R19K, V24A, F33Y, I54S, S55G, V56G, S59R, L107F
VL: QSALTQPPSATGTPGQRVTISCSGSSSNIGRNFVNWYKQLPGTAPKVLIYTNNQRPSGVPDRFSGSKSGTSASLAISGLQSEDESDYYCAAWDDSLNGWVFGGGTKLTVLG
B2: binds [1]; binds [2]; binds [3]. B2: binds [4]; binds [5].

B3: hu anti-<huCDH19> 26F12.1 VH::huIgG1z / 26F12.1 VL::huLLC-C2 (Ab ID 13881) (antibody, V domains shown)
VH: QVQLVQSGAEVKKPGASVKVSCKASRYTFTNYYMSWVRQAPGQGLEWMGIINPSGGDSTYAQKFQGRLTMTGDTSTSTVYMELSSLRSEDTAVYYCARGGIQLWLHFDYWGQGTLVTVSS
VL: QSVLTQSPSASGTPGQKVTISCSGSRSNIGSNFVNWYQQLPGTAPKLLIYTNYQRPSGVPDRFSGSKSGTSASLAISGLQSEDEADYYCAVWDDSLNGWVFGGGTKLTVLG
notes: also called 27B3
B3: no binding (tested: 5 ug/ml) [6]; no binding (tested: 5 ug/ml) [7]; no binding (tested: 5 ug/ml) [8]. B3: binds [9]; no binding (tested: 5 ug/ml) [10].

B4: hu anti-<huCDH19> 4B10 (1-471)(R17G) VH::huIgG1z / 4B10 (1-236)(H45Q,A90T) VL::huKLC (Ab ID 14054) (antibody, V domains shown)
VH: QVQLVESGGGVVQPGGSLRLSCAASGFTFSSYDMHWVRQAPGKGLEWVAVISYDGTNEYYADSVKGRFTISRDTSKNTLYLQMNSLRAEDTAVYYCARERYFDWSFDYWGQGTLVSVSS
VL: EIVLTQSPGTLSLSPGERATLSCRASQSVSNTYLAWYQQRPGQAPRLLIYGASSRATGIPDRFSGSGSGTDFTLTISSLEPEDFAVYYCQQYSNSWTFGQGTKVEIKR
notes: Engineered variant of 4B10
B4: binds [11]; binds [12]; binds [3].

B5: hu anti-<huCDH19> 4F7 VH::huIgG1z / 4F7 VL::huLLC-C1 (Ab ID 13591) (antibody, V domains shown)
VH: QVQLQESGPGLVKPSETLSLTCTVSGGSISSYSWSWIRQPPGKGLEWIGYIYYSGSTNYNPSLKSRVTISLDTSKNQFSLKLSSVTAADTAVYYCARNWAFHFDYWGQGTLVTVSS
VL: QSVLTQPPSVSGAPGQRVTISCTGSSSNIGTGYDVHWYQQLPGTAPKLLIHGNSNRPSGVPDRFSGSKSGTSASLAITGLQAEDEADYYCQSYDSSLSGWVFGGGTRLTVLG
B5: binds [1]; binds [2].
